As a reminder, the Kd is the free concentration of one partner at which half of the binding sites on the other are occupied at equilibrium, for simple one-to-one binding. A low value points to tighter binding.

The target of assay [1] is acetylcholine receptor on AchR-overexpressed TE671 cells. In words: cell-based or functional assay.
The target of assay [2] is acetylcholine receptor protein. The experiment in a line: SPR, AchR on CM5 chip, positive control. (In general: In SPR one partner is held on a chip, and binding of the other changes the refractive index at the surface.)

For Synake (peptide), the IC50 value for AchR (AchR inhibitory effect in TE671 cells) in assay [1] stood at 75 µM. This substance also returned a Kd in assay [2] of 2.3 mM. Take bungarotoxin: the IC50 value for AchR (AchR inhibitory effect in TE671 cells) in assay [1] amounted to 0.0075 µM.

These data come from patent publication US20220110851A1.
